# The DeepSol protein solubility set
# Assay: soluble on expression in E. coli; label from the status in PepcDB or PDB records
row,Sequence,soluble on expression in E. coli
1,MEELQYFPYERLRPNQREFIEIVKEAVKRGENLIVEAPTGFGKTISVLAGVLPYAISLGYKVVYLARTHKQMDRVIEELKKIRERNEVSGIEFRSRRDLCLHSYIQTFVQDAYTSMIVCKTLRKLGKCPFFENIKEKRDRVEEIVRFFLNSPPFPHEVLEYSELLELCPYEITKKIGEKANVIVASYLYMISPPIRQAFLENLGVDYSDLIVIFDEAHNLPDQAISALSDRLSIRSIERAIKEAEEYGEKDIENFLSILLRGLEILYKEKLENYESEEVPIRPEEVFLHVASVLGWSGREIGMMLEDMIEVGDAIREDRIERNLPPRSYVGRVGEFLWNWLALREREDYLHLFTKERGLALELVALDPSVALEFLEEVHSAIFMSGTLSPLEAFRDIIGVKAELKKFPRMIKRENAIVLVARDVSTRGIERSPSLYRRISEYIFEAVRNTPKNVGVFTASYEVLEGILSTNVHIKIEEEIGKKVFIEKRDAPSRENDEMIRAFKEESKGKGAVLFGVMGGRNSEGQDYSGDEMNGVVLVGIPYARPTPRVQAQIRYFEKKFPGKGRYYGYVLPAHRKLTQAAGRVHRSEEEKGSIVILDYRVLWKSVKKDLPDWMVETMIPVTLPHYENKTLEHHHHHH,not soluble
2,MEEWKTSFREIYGRSPTAGDISVAPNHIKAILQSEKKENDEKIEEKQAKRGVKRKNFEMKMMEGEQFSPIKKRVNLNQLGSENDKNPIPLRSSPRKKMIAIEVLPEKSMVSPKKKPVGSVPFEFDDFSPVKSYSASTSKSAVKSTLTPIKSPTKRAYQRPLRDLKMLLLPTPEKGQEVEGPVEEFDDETNEDVAKARSYNPAARKLGGSSKSDQNFQKINLRKKQFVRGKVTAEQKRKLKRKQMFKKKY,soluble
3,MEEYKLSHLKELEAESIHIIREVAAEFENPVMLYSIGKDSSVMVRLAEKAFYPGKVPFPLMHIDSKWKFKEMIQFRDEYAKKHGWNLIVESNMEAFHAGVGPFTHGSKVHTDLMKTQALLHALDKYKFDAAFGGARRDEEKSRAKERIFSFRDKFHQWDPKNQRPELWDIYNARVHKGESIRVFPISNWTELDIWQYIRLENIPIVPLYYAKERPVINLDGNIIMADDDRLPEKYRDQIEMKMVRFRTLGCWPLTGAVESGAATIEEIVEEMMTTTKSERTTRVIDFDQEGSMEQKKREGYF,not soluble
4,MEFDYVICEECGKEFMDSYLMDHFDLPTCDDCRDADDKHKLITKTEAKQEYLLKDCDLEKREPPLKFIVKKNPHHSQWGDMKLYLKLQIVKRSLEVWGSQEALEEAKEVRQ,soluble
5,MEFHFFGTGSGVPSIERNVSACAVRFLQQRGKQWLFDCGEATQHQILRSSIALGKIERIFITHLHGDHIFGLPGLLGSRSFQGGENPLFLYGPKGIRSFVETALQVSNTHVKYELTIEEFSEPGLLFHEEGFKVETILLDHVMPCYAFKVTEDDRPGELLVDRLKAKGVPPGPLYRKIQQGETVELPTGERLEANAFLGPPKRGRSFVLAGDTRPVKELIPFAKNVNVLIHEATFLDDKKGHAHEYGHSTMADAIQLAKQANVDHLILTHISSRYHDMSDELQKKAQNAFANAVVAHDFYVFHLPLAKGLEHHHHHH,not soluble
6,MEFKVEDDRISLYADSKRVSWVLYRKHSGEIELLATFTAKGEEGKGYASKVVGEALNYARGFEKIKVSCPYIKSWIEKHGFDRDVEYTKLLEFKEAVEKFNRFHSPEAVAEFMKEEGEVVYVRFTGPFCVSCGVYDYFEDLTQDAEVLDYEEVEDGFIVRYRLL,not soluble
7,MEFRKEVEVAKILVGGKVEENVVEIRYDPLTLQTSRILKKTIPMQSGDFQEEIDSTRSWCPFCPERIEQMVSRDPEIMEGELWKRGEAVLFSNLTPYSKYSLVLRLTEEHYVPVSEFKSQHFFDAFKLIQEYVKKVPEGKYYVTIGMNYLKPSGSSIMHPHIQVMISEVSTDYFARLDWSALEFKESNGVDYWKKLAEVEKGGERYIGSTDKTEWVAAFAPKGFFHFTGIPEEREFMQMSDEQLKGIAEGIAKILRYYGRKNLNAFNFSMFCADRIGDHFRTNINIVARTPFAKYYWCDVFYPKMFHDESVVFFVPEEYAKEIREIWSEL,not soluble
8,MEGDTVHWQTHTVFNQPIPLNNSNLYLSDGALCEAVTREGAGWDSDFLASIGQQLGTAESLELGRLANVNPPELLRYDAQGRRLDDVRFHPAWHLLMQALCTNRVHNLAWEEDARSGAFVARAARFMLHAQVEAGSLCPITMTFAATPLLLQMLPAPFQDWTTPLLSDRYDSHLLPGGQKRGLLIGMGMTEKQGGSDVMSNTTRAERLEDGSYRLVGHKWFFSVPQSDAHLVLAQTAGGLSCFFVPRFLPDGQRNAIRLERLKDKLGNRSNASCEVEFQDAIGWLLGQEGEGIRLILKMGGMTRFDCALGSHAMMRRAFSLAIYHAHQRHVFGNPLIQQPLMRHVLSRMALQLEGQTALLFRLARAWDRRADAKEALWARLFTPAAKFVICKRGMPFVAEAMEVLGGIGYCEESELPRLYREMPVNSIWEGSGNIMCLDVLRVLNKQAGVYDLLSEAFVEVKGQDRYFDCAVRRLQQQLRKPAEELGREITHQLFLLGCGAQMLKYASPPMAQAWCQVMLDTRGGVRLSEQIQNDLLLRATGGVCV,not soluble
9,MEGIIVRRVIPSDNSCLFNAIGYVMDKDKNKAPELRQVIAAAVASNKEKYNEAFLGKLNEEYCAWILNPDKWGGAIELSILADYYGREIAAYDIQTSRCDLYGQTRNYDERVMLIYDGLHYDALALSPFEGAEEDFDMTIYPVGKDRSIGSIEGLALNLVKDQQRKRSYTDTANFTLRCGVCQIGVIGQKEAVEHAQATGHVNFQEYK,soluble
10,MEGISNFKTPSKLSEKKKSVLCSTPTINIPASPFMQKLGFGTGVNVYLMKRSPRGLSHSPWAVKKINPICNDHYRSVYQKRLMDEAKILKSLHHPNIVGYRAFTEANDGSLCLAMEYGGEKSLNDLIEERYKASQDPFPAAIILKVALNMARGLKYLHQEKKLLHGDIKSSNVVIKGDFETIKICDVGVSLPLDENMTVTDPEACYIGTEPWKPKEAVEENGVITDKADIFAFGLTLWEMMTLSIPHINLSNDDDDEDKTFDESDFDDEAYYAALGTRPPINMEELDESYQKVIELFSVCTNEDPKDRPSAAHIVEALETDV,soluble
11,MEGVELKEEWQDEDFPIPLPEDDSIEADTLDGTDPDRQPGSLEVNGNKVRKKLMAPDISLTLDPGEDSLWSDDLDEAGEVDLEGLDTPSENSDEFEWEDDLPKPKTTEVIRKGSITEYTATEEKGDGRRWRMFRIGEQDHRVDMKAIEPYKKVISHGGYYGDGLNAIVVFAVCFMPESGQPNYRYLMDNLFKYVIGTLELLVAENYMIIYLNGATTRRKMPSLGWLRRCYQQIDRRLRKNLKSLIIVHPSWFIRTLLAVTRPFISSKFSQKIRYVFNLAELAELVPMEYVGIPECIKQVDQELNGKQEPPKSEQ,not soluble
12,MEGVKKIKNPSTVKDELLELMFRIYRSTNGKYPALEWVKRKPNPNDFDGFREVYEPFLKFRLSQEFDELYTYQKDNRIIGTIALVYKRIKEKGIWWVPEELMNEKVGLIEFFVVDPEFQGKGIGSTLLEFAVKRLRSLGKDPYVVTFPNLEAYSYYYMKKGFREIMRYKEFVILKFNHKKFQLEHHHHHH,not soluble
13,MEHEIGNISIARIRQMNPSLKGINNDFVMDRSEHYIPENMNPIFKYPLRLDGIIISIREKGSAKVNINLREYDIEQNDLIICAPGDILQSMLSPGIHLSQMFLISSDFLKEMYINLNSFMPFFISLKENPKFHLMEEEVQELKSFYELIEETVSRNDNFRTEIVRRLMGAYLYKIGSILHRKQPEFLSENPKSLKREEVLFNQFINLLTEHHRKERRVDFYAEQLFLSPKHFSTVVKKVSGKTAGEWIDEYVILEAKALLKYSVMSIQEVAYFMNFPNPSFFGKYFKHHTGLSPSEYKMQ,not soluble
14,MEHKTPKHIVAVAGYLTNEKNEVLLTKVHWRADTWELPGGQVEEGEALDQAVCREIKEETGLTVKPIGITGVYYNTSMHILAVVFKVAYISGEIKIQPEEIQEAKFVDLNEENIDEYITRPHMKSRTLDAMRATHFIPYETWEVQPYNLIGRL,not soluble
15,MEHNILQVIALAEKLKYEMRHSWLSNGRQESVAEHTWRMSLMAILVEPYLDQKVSIEKLLKMVIIHDLVEAEAGDIPAFDTMNSHDLQLQKQKNELEAILNIKQTLTGSLGEELYDLWMEFEAKETYEAKVANALDKLEVKIQHNEADIDTWLPIEHKMTFQVAKHTNFDSFLSKLQKIIEQDGEKKLIAAGIDVEACKQ,soluble
16,MEIKLQGKVSLVTGSTRGIGRAIAEKLASAGSTVIITGTSGERAKAVAEEIANKYGVKAHGVEMNLLSEESINKAFEEIYNLVDGIDILVNNAGITRDKLFLRMSLLDWEEVLKVNLTGTFLVTQNSLRKMIKQRWGRIVNISSVVGFTGNVGQVNYSTTKAGLIGFTKSLAKELAPRNVLVNAVAPGFIETDMTAVLSEEIKQKYKEQIPLGRFGSPEEVANVVLFLCSELASYITGEVIHVNGGMF,soluble
17,MEINADFTKPVVIDTDQLEWRPSPMKGVERRMLDRIGGEVARATSIVRYAPGSRFSAHTHDGGEEFIVLDGVFQDEHGDYPAGTYVRNPPTTSHVPGSAEGCTIFVKLWQFDPADRTQFSKNMEAELGAPVEGISTSLLHEDERETVTHRKLEPGANLTSEAAGGIEVLVLDGDVTVNDEVLGRNAWLRLPEGEALSATAGARGAKIWMKTGHLRFVRTPEV,soluble
18,MEIQIVTGFLGAGKTTFLNRYLPLLSGKTVVIENEFGDIGIDGDRIQEDIPVREIFAGCICCSLAMDFRKGIKEIAENFHPDRILIEPSGVGRLTDIVKACQMAREREKVSLQITKLIAIVDMASFEEYIEGFGAFYQDQIERAGLLLLSHVEAENKAQKEIIIGRLKELNPDAILYDGDWRQLENEELLKLLEEAPDYDEDARRDAAFAALPADKVFSSVSFMDLPQMRIEDLEAIMKALEKEEYGYILRAKGWIETMEKGLVHFDFTPTVSKYREEKNPAGTGGEAVVIGCGLNQAALEMLFRRKNILEHHHHHH,soluble
19,MEISTLPIYHTKTKMFGYYAYKSFSFLPEWKIDVTRDFDVTIGPKFSANLVFGVNNRNRSDYTQFVIDKDEIIVSASVGEEVDFNYRLRDNLKAYIGLEAQVGIGERIYTKSGLYDTGKKIEGSSENAFKPYTPYIIFNNTHIMYSGKVSAGLKIRDKYNIALYGGYGKGYFGIEFGQTF,not soluble
20,MEKEIKEKNLPLELTLVEASPRVGGKIQTVKKDGYIIERGPDSFLERKKSAPQLVKDLGLEHLLVNNATGQSYVLVNRTLHPMPKGAVMGIPTKIAPFVSTGLFSLSGKARAAMDFILPASKTKDDQSLGEFFRRRVGDEVVENLIEPLLSGIYAGDIDKLSLMSTFPQFYQTEQKHRSLILGMKKTRPQGSGQQLTAKKQGQFQTLSTGLQTLVEEIEKQLKLTKVYKGTKVTKLSHSGSCYSLELDNGVTLDADSVIVTAPHKAAAGMLSELPAISHLKNMHSTSVANVALGFPEGSVQMEHEGTGFVISRNSDFAITACTWTNKKWPHAAPEGKTLLRAYVGKAGDESIVDLSDNDIINIVLEDLKKVMNINGEPEMTCVTRWHESMPQYHVGHKQRIKELREALASAYPGVYMTGASFEGVGIPDCIDQGKAAVSDALTYLFS,not soluble
21,MEKKTNCIQNEEQKKEKELIAEKAAKAGFVNRLYVNIGQKVGVVELTKLEPRFERNIDKLTSYHNLIYKIVNVIELQVQFMPKAMAKKAVLCAPGENPWEVLGGWLNYLGKNQFDGQHSKMLEKYSSACGRIAQKEIQVQKRTRSHLIKKMRLYTGEESEILNSNVENLNNLLHAIDDSRHHVKSSKTTKEVKAKGETYRKAINAFNETANEVQALIDEVAMVVPLHENEFLKFSREASVYHDTVHNSLSEVIFRLGYHVKKH,not soluble
22,MEKNWYVVHTYSGYENKVKANLEKRVESMGMQDKIFRVVVPEEEETDIKNGKKKVVKKKVFPGYVLVEIVMTDDSWYVVRNTPGVTGFVGSAGSGSKPTPLLPGEAETILKRMGMDERKTDIDFELKETVKVIDGPFANFTGSIEEIDYDKSKVKVFVNMFGRETPVELEFTQIDKLLEHHHHHH,not soluble
